Source: the DeepSol protein solubility set

Assay: soluble on expression in E. coli; label from the status in PepcDB or PDB records

Soluble on expression in E. coli, not soluble:
MGSDKIHHHHHHMFRPKLLFTSLAALALGACSPQDPQAVTSAAIANQVILPTYSRWVEADRTLAASALAYCEGKESLDKARADFLNAQKAWAELQPLLVGPLAEGNRAWQVQFWPDKKNLVGRQVEQLVNGDKPVDAEALGKSSVVVRGLSAYEYILFDSKPDIATAEQKARYCPLLVAIGAHQKALAEEILKGWNSTDGMLSQMTKFPNQRYADSHEAIADLLRAQVTALDTLKKKLGAPMGRQSKGIPQPLQAEAWRSHNSMNSLQASLKAAEAVWVGVDNQGLRGLLPSDQKALADKIDAAYATSLKLLADNQKTLGELLADDAGQQTLNQIYDSLNVVHRLHEGDLAKALNIQLGFNANDGD
MGSDKIHHHHHHMKRPGFIERHHLWTEIQKEASEKIKTIVKEQDLLLIRTAWSDQHGIVRSKSLLPQAFFSALENGMQISTGTFLLDTGGAIVFNPFVPGGSLDMPLMTGAPNLVAVPDPDTFKIVPWAKRTGFILCDEYFQNGQPMPFSSRGILRQSLIDLHQRGLEHIVGLEVEWYLAKLEDPMLAIANVGSSGKPGEPAKVSAVDHSFQYLLESHNPEIQDLLGLLAENLVEMKLPLRSVENEGGVGQFEFTFDPIPALQAADTMMIFRMATKQICRQQGYIASFMCRPGLQGSSSNGWHLHQSLVDLTTGENAFMSANSQTLTSDLAKHFVGGLLKHANAASVFTTPTINGYKRFRPYSLAPDRAGWGLENRGAMIRLQGGFDDPSTHIENRVGEPAANPYLYMASQLISGLDGVDCKLDPGSPTEEPYTTENPILPKSLSEAISYLSQSELFPQKMGQQFINFIIKMKESEINRFLQSVADQPPEEYLKQVTNWEQREYFELF
MGSDKIHHHHHHMNSSLQVGIGIDVGSSSARIGVYNYYNDALLEMAQEPVPYYQDSSKKSWKFWQKSTEIIKALQKCLQKLNIREYEVKSCGVSATCSLAIFERDRTSNMLIPYPNEDNVIFWMDSSAVNECQWLNMQCPQQLLDYLGGKFVPEMGVPKLKYFLDEYSHLRDKHFHIFDLHQYIAYELSRLYEWNIEGLLGRENLNGIGNDGEVSGWSSSFYKNIINLPSNVSIGTTSLVANKHISTTVVRSCIDSYASWFAVASPHLETSLFMIAGTSSCYMYGTTISDTRIPGVWGPFDTILDNRGDFSVYAAGQSCTGKLIEHLFESHPCARKILKDGADIYQVLEQTIRDIEKNNGLSIHILTKDMFFYGDYEGNRTPFADPRIKGSFIGESTDTSMLNLTYKYICILEFLSFQTKLIIDTFQNENSNIHIKELRISGSQAKNERLLSLISLVNNGVAIIKPKENVDMMGIKGAYVLAKSAKEKKQLADVITERDISNDSEKFESLAEYRLGNDSILLRKLLCVKYHIHLDMAKQQKRYHKLVDEVFQHL
MAHHHHHHMPCNVSCSTSPNSVTGEPRFIMDFSMNKVAKYFRLLGYDTLCSRDVPQANLIPTACAEGRILVTCSRPLARSVQLHNQRVRTMRLGIAKAMTGAAHHVIAYDSDGESIYSEDSEEVDVELRCLFTQQWCSGEFKRAMIELIQQAGVTYDLNRVFRRCVTCNELLVTMEKEEVRGRVVAKIYEIYDEFTECPTCRKVFWGFDGVFAINYKSFRSLNLLRSLCICAGAPVEEERTRLNRLRCFRSFPRIAKVLIFSYLEDVDLANMTVVFPALRDLAEEVQASRQTGEPVRKMQLRKH
MAHHHHHHMEHVRHLLDVIMGRATLDPGVARVVSVFFNQKSSGFSPQELMQFLVTCAFHVKGMTPLEAARFCFFALRRDMEHAIARDDVIFMLEHSLIEHTIEMPEMELRRRVVDIFGDTTYVIFDDFVRYFIHNYAMWYAFGVPVTVSGERSGRGGDVAPQLNPTLTLLKADGEPNAKARAPTAATTVSTSGAAPVSASTSTTAATPAAAITTATTQKTVPHDESVWRTFIARVQHSNKAFSVTAHVNDTIFDVMVMVQNSTGIRAACQEWRAGNVALDPKCRLGSTELGLGGNEVAAPEVIIIARDEAVRLVMVYKEKGFRWEVRLPSSEKVLKLRALVQHKTMIPLTRCVLRAHGSCLMDRHPLAHYNLQDGDVVTITQE
MPAVQETIRQVREIDVDQYKYGFETKIKTDKAPKGLNEDIIRFISAKKCEPEWMLKWRLQAFRRWLTMQEPDWARIEYPKIDFQELHYYAAPKNHTGPKSLEEVDPELLATYEKLGIPLKEQEILAGVRKQSDPSTFDESVYASGQVAVDAVFDSVSVVTTFKKELARAGVIFCSISEAIIEHPALINQYLGTVVPVGDNYYAALNAAVFTDGSFVYIPKGVRCPMELSTYFRINERNTGQFERTLIIADEDSYVSYLEGCTAPQRDENQLHAAVVELVALKNAEIKYSTVQNWYPGDKEGNGGIYNFVTKRGDCRGDNSKISWTQIETGSAITWKYPSCLLRGDNSRGEFYSIAVANGHQQIDSGTKMIHLGKNTSSRIVSKGISAGFSNNTYRGQVTAHRKAHNARNFTQCDSLLIGNDCGAHTVPYIEAKNATAQFEHEATTSKISDDQLFYVMQRGIPEEEAIALIVNGFVKEVIQKLPMEFAVEAQKLIGISLEGSVG
MAHHHHHHMSLCHTASRWRSVQCTGDIPPGRIGHTLCANGTETKIFLYGGVNDRNESISNYLDDLYVFDVNKKHWSKIEMTGQVQCSRAFHSAVYYEGKIYIFGGCNGRGRFNKLFSTSEEGLCAQIEASGQPPSTRYCHSAVLFERCMYIFAGKCGGRNSNRRLSDLYLFDFQTNTWMECPQHGDPPTPRSAHAAFTCGRNMIMFGGRSAQGECCEDMYMYNYDTCMWRPIESPNSGPLFGRARNSVVVHHGKVVVFGGWNGKKKLNDLFTYHVDSNTFEVMHEPDENCPSRRECHVAVVCKNTMVVFGGRFRGEFMSDTAELDLGPKTLKQNCRDWILRSSFKELHSNRGERLPLRLQQFIESWRQLICRVEKIEPRTPLQDSAPNEALSSDSNSQHG
MGSDKIHHHHHHMKILKHSLFTSVVNKMRLIHHQDDTAKLSLLITGMSGTGKSTLVDWYEQQYPVEYTPEVTLKRVICVHLTKPNSPINLLEQIINAMGTSYIPRRRTLNKLLHQLKCLLEACQTELIILDEAQECLPDSDGIKAQSMAKAFVAIIDKCNVPLILIGTPALKRLLKLKYLADVKNISREEQLSRRFIAPCQLNIFLSHCDAWVNVINFFGKTKGLRNLNTKDADILDRLYVATYGRIGLIKKLFAFTQLNETSDLQATFYDAYELVDTTGEANPFNQQDYTYAAIIKKAENIERIYFTHNKTHPSEKRVADRLFH
MGSDKIHHHHHHMHILIYSYNYHPEPIGIAPLMTELAEGLVNRGHEVRVITGMPNYPEREIYDGYRGQWYVTEQKNGVTIQRSYIRIKSKPNLLDRLLLELSFIFTSLPQAFRGERPDVMILTVPPLLGILPATIFGWLYNCPIVLNVQDILPEAAVRIGLLKNKWMIRTLAALEKFAYRTAHTISVIADGFRENLVNKGVPVNKIVCIPNWVNVNFIHPLPKQNNSWISSHQLDGKFIVLYSGNIALTQGLETVIEAAVCLRHIKEIVFVIVGESRALQRLQEYCLLHGADNVLLLPLQPREKLPEMLAAADVGLIVQKRNIISFNMPSKIPLLLASGRPIVGSVPATGTAARAIKLSGGGIIVEPESPDAMAAAVHDLYANPTFCTRLGNAGRQFAEENYSLEQALDRYEWLFYHILANRKSNVGILPKLDSKESVVDA
MKAIITKPMCVVGDNKSTVRFETSTPNNPFVEISNQVYARLKRANAAKPFVDVKTKIKPDKAVEQIKQIEKEPNQISSETVTEETSLEKPKASKASKPSTPTPKKA
MGSDKIHHHHHHVEQTMFTNEVILSWLQYFSKNAPINLAKLKMLDITGKNKNLIPTVMSNRAVLVFTDAGHPDIFYDMWNAELGDCDIWYNEGSEPSGEIKHDKVSDMINRGINASAAMLILNPNAATNYHIGMENSRFSCGSVQYVCREVRAVIMNKLNLGDQDNICIISGESIAVEAAMIAAEGSVIAVEYDRRDRNTMQENVKKFDLNNVTIVESLENGIPDKLPVPDIAFIVGSPRIGSEIKALLSINPVMDFVIYTLDFEVLMSLPALFRENGLERTEAIHVAVSRVNSKKMVEPFPAPWLISGRSIKG
MSDVATLESFRLADSFLPVGTYTVSYGLEQFIQDDRVEDATDLEGLLSTYLRRQIGPAELVALRAAHAAATDGDIEAICHADQRLSAVTLAAEFRESAQQSGDRLLSLQTELRDEALLNRYAERVDADDAPGNYAVVLGVATGLADVAVREACLLCCHGFVTGLLGAAQRLLSLGHTDAQRILNDLQPVMTAAVDDSADRGIDEMTPFAPLVDVLAAEHERAERRLFASLEHHHHHH
MLLELPATNSALAIKSVLMAMTPNNDAILVVGERGHIINWQNDDNWQQLQSPVSVAITDVTILSDGSKVAVGHDGVILKVDSNSTTWRKVFTGKEITQFQIAQLKQQYQSLEQVILQTQDEDELEELTYQLDDLTFAIEDNQLELKSGPNKPLLSVTSTSNDTLFASGAYGILLSSKDKGETWQLVSNHLDNPDRFHLNTVIATADDQLYIVGENGMGFHSTDVGQTWSVMTLPYSGSLFGILANTVKTHTISTDDINSTKNKTQLVAFGLQGNIMVSLDGGGNWQHIKLPRSTSLLGGNFSKQGKVYLVGHGGVIVSFYPENLSTLTIKKHPSGAALSSVLVKDNSLILAGQFGISQWPIEAEELEHHHHHH

Soluble on expression in E. coli, soluble:
MIEKKIHYVWFGNAKSEKVLKCIESWKKNLPDYEIIEWNEKNFNIEEELKSNKFFRECYNRKLWAFVSDYVRVKVLYNYGGIYLDTDMEIIKDITPLLDADMFLGYENEDTMSFGIVGVIPKHKVFKKMYEFYQNEIWKSPLHIVTSILTEILEKEYHGKYRENNINIYPREYFYPFNHDEEFTKDCITGNTYAIHWWGKSWKKNPKVYFLKYKHLPWWKKYPKHVAKLINYYFKNLFNFRKELEHHHHHH
MRDYSELEIFEGNPLDKWNDIIFHASKKLSKKELERLLELLALLETFIEKEDLEEKFESFAKALRIDEELQQKIESRKTDIVIQSMANILSGSGSGSGSSGNPLDKWNDIIFHASKKLSKKELERLLELLALLETFIEKEDLEEKFESFAKALRIDEELQQKIESRKTDIVIQSMANILSGLEHHHHHH
PNISDIIEQYLKQVLNMSDQDIVEIKRSEIANKFRCVPSQINYVINTRFTLERGYIVESKRGGGGYIRIMKVKTKSEAQLIDQLLELIDHRISQSSAEDVIKRLMEEKVISEREAKMMLSVMDRSVLYIDLPERDELRARMLKAMLTSLKYKLEI
MGSSHHHHHHSSGLVPRGSMNNIYPLVICGPSGVGKGTLIKKLLNEFPNYFYFSVSCTTRKKREKEKEGVDYYFIDKTIFEDKLKNEDFLEYDNYANNFYGTLKSEYDKAKEQNKICLFEMNINGVKQLKKSTHIKNALYIFIKPPSTDVLLSRLLTRNTENQEQIQKRMEQLNIELHEANLLNFNLSIINDDLTLTYQQLKNYLLNSYIHLNNHTRN
MSLDSACEGRFVNPITDICWSCIFPLSLGSIKVSQGKVPDTANPSMPIQICPAPAPLFRRIGLAIGYWEPMALTDVTRSPGCMVNLGFSLPAFGKTAQGTAKKDEKQVNGAFYHVHWYKYPLTYWLNIITSLGCLEGGDMDIAYLSEIDPTWTDSSLTTILNPEAVIFANPIAQGACAADAIASAFNMPLDVLFWCAGSQGSMYPFNGWVSNESSPLQSSLLVSERMAFKLHRQGMIMETIGKNNAVCNEYPSPILPKERWRYQMVNMYPDSGQCHPFGRSVMPWETGKNPPNTKKNFGYLMWRKRNCVFLEGHHHHHH
MSLNPRIDYLKSLSTLAAEIYPDIRGVKKLRYNARFCLWGILMPDTLARIQDLLNQPSFHPVRQHYPRTLEKPLKPYVCVKWPPQERAQRLIEHFAFLEKRHAQLLPLIYRHQGWSLFQHELFSIQLCHGPEREGSLALVLLSQDHQPLFTLAFNISGRNKPVIHIGALQGPGPNVENRQEIIRQLTHQLHGLRPKALIMEVLLILARYWCVEKVYGVTNEGHVYQALRYIGSKRSSVRFQYSELWQEMGGEAINPYWHSLPTHPPRKAPLSLSKTKRRLYTKRYAWLTELEQSIQANLQPWDNEIHHEGHHHHHH
